The record followed here is PMC4201289 (Genes & Development, 2014).

Assay [1] deals with Mcm2–7 hexamer (minichromosome maintenance proteins 2–7) (S. cerevisiae) (UniProt P29469). Briefly: cryo-EM structure.
For assay [2], the target named is T1, Mcm4 (subunit in the Mcm2–7 double hexamer) (S. cerevisiae, UniProt P30665 1-933).
T1 sequence: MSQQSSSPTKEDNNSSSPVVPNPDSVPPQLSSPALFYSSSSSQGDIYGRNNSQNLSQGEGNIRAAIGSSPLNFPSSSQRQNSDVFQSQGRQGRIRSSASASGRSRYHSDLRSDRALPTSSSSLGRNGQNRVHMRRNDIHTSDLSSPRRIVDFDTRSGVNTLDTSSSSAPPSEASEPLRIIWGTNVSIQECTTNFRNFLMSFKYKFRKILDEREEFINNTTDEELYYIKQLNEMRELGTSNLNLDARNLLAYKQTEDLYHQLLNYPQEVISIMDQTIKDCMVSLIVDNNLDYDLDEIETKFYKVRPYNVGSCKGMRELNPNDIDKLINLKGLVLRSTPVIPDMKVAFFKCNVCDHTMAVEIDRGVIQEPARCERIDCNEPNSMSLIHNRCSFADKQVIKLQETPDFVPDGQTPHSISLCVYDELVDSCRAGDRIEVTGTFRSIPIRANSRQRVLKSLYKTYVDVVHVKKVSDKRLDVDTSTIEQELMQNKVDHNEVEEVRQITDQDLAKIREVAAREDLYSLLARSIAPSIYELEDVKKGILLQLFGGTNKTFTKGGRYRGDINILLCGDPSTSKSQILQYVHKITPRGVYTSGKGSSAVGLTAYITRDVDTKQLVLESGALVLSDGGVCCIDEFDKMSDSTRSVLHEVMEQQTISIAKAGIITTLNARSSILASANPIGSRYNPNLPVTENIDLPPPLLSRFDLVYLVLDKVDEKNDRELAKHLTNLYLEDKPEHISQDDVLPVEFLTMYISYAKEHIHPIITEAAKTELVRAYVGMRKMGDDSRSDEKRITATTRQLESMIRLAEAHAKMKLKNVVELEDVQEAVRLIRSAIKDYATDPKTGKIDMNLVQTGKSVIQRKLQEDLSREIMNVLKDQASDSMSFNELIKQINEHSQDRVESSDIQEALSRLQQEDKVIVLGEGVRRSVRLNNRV
Description: negative stain EM, 3D reconstruction.

In turn, “Mcm2–7 hexamer (minichromosome maintenance proteins 2–7) (from UniProt P29469;P24279;P30665;P29496;P53091;P38132) (complex)” returned a stoichiometry N in assay [1] of 2.

B1: Mcm5 (subunit in the Mcm2–7 double hexamer) (natural protein)
chain: MSFDRPEIYSAPVLQGESPNDDDNTEIIKSFKNFILEFRLDSQFIYRDQLRNNILVKNYSLTVNMEHLIGYNEDIYKKLSDEPSDIIPLFETAITQVAKRISILSRAQSANNNDKDPENTSMDTDSLLLNSLPTFQLILNSNANQIPLRDLDSEHVSKIVRLSGIIISTSVLSSRATYLSIMCRNCRHTTSITINNFNSITGNTVSLPRSCLSTIESESSMANESNIGDESTKKNCGPDPYIIIHESSKFIDQQFLKLQEIPELVPVGEMPRNLTMTCDRYLTNKVIPGTRVTIVGIYSIYNSKNGAGSGRSGGGNGGSGVAIRTPYIKILGIQSDVETSSIWNSVTMFTEEEEEEFLQLSRNPKLYEILTNSIAPSIFGNEDIKKAIVCLLMGGSKKILPDGMRLRGDINVLLLGDPGTAKSQLLKFVEKVSPIAVYTSGKGSSAAGLTASVQRDPMTREFYLEGGAMVLADGGVVCIDEFDKMRDEDRVAIHEAMEQQTISIAKAGITTVLNSRTSVLAAANPIYGRYDDLKSPGDNIDFQTTILSRFDMIFIVKDDHNEERDISIANHVINIHTGNANAMQNQQEENGSEISIEKMKRYITYCRLKCAPRLSPQAAEKLSSNFVTIRKQLLINELESTERSSIPITIRQLEAIIRITESLAKLELSPIAQERHVDEAIRLFQASTMDAASQDPIGGLNQASGTSLSEIRRFEQELKRRLPIGWSTSYQTLRREFVDTHRFSQLALDKALYALEKHETIQLRHQGQNIYRSGV
As for B1, in assay [2], the binding result was “binds”.

B2: Mcm2 (subunit in the Mcm2–7 double hexamer) (natural protein)
chain: MSDNRRRRREEDDSDSENELPPSSPQQHFRGGMNPVSSPIGSPDMINPEGDDNEVDDVPDIDEVEEQMNEVDLMDDNMYEDYAADHNRDRYDPDQVDDREQQELSLSERRRIDAQLNERDRLLRNVAYIDDEDEEQEGAAQLDEMGLPVQRRRRRRQYEDLENSDDDLLSDMDIDPLREELTLESLSNVKANSYSEWITQPNVSRTIARELKSFLLEYTDETGRSVYGARIRTLGEMNSESLEVNYRHLAESKAILALFLAKCPEEMLKIFDLVAMEATELHYPDYARIHSEIHVRISDFPTIYSLRELRESNLSSLVRVTGVVTRRTGVFPQLKYVKFNCLKCGSILGPFFQDSNEEIRISFCTNCKSKGPFRVNGEKTVYRNYQRVTLQEAPGTVPPGRLPRHREVILLADLVDVSKPGEEVEVTGIYKNNYDGNLNAKNGFPVFATIIEANSIKRREGNTANEGEEGLDVFSWTEEEEREFRKISRDRGIIDKIISSMAPSIYGHRDIKTAVACSLFGGVPKNVNGKHSIRGDINVLLLGDPGTAKSQILKYVEKTAHRAVFATGQGASAVGLTASVRKDPITKEWTLEGGALVLADKGVCLIDEFDKMNDQDRTSIHEAMEQQSISISKAGIVTTLQARCSIIAAANPNGGRYNSTLPLAQNVSLTEPILSRFDILCVVRDLVDEEADERLATFVVDSHVRSHPENDEDREGEELKNNGESAIEQGEDEINEQLNARQRRLQRQRKKEEEISPIPQELLMKYIHYARTKIYPKLHQMDMDKVSRVYADLRRESISTGSFPITVRHLESILRIAESFAKMRLSEFVSSYDLDRAIKVVVDSFVDAQKVSVRRQLRRSFAIYTLGH
For the molecule B2, the binding result in assay [2] is reported as “binds”.

As usually defined, the stoichiometry N is the number of molecules, sites or subunits per partner or assembly.
